Experimental findings from IntAct's records for PubMed 20881132 are described below.

This test has as its target sgg_drome sgg (UniProt P18431).
UniProt P18431, sequence (P18431 whole entry): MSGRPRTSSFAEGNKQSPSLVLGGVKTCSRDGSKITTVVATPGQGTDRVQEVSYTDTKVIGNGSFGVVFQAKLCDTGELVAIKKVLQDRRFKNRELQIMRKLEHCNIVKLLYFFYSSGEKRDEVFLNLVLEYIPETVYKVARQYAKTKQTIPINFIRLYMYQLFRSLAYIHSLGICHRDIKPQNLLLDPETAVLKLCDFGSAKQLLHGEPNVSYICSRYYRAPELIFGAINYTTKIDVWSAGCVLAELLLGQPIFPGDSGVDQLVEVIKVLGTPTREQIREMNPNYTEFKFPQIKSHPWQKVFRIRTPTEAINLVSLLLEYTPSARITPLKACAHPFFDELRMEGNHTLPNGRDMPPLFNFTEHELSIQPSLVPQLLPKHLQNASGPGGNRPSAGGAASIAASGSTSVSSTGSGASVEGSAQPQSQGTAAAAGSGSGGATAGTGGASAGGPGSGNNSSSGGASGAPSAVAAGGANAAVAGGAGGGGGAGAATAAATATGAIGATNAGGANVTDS

With “Leucine-rich repeat serine/threonine-protein kinase 2 (Homo sapiens), Q5S007 G2019S”, the “effect of a mutation on the interaction” value is listed as “increasing interaction”.
